Measurements published in IntAct's records for PubMed 21666598.

B1: Shugoshin 2 (Homo sapiens), Q562F6 (parent)
chain: MECPVMETGSLFTSGIKRHLKDKRISKTTKLNVSLASKIKTKILNNSSIFKISLKHNNRALAQALSREKENSRRITTEKMLLQKEVEKLNFENTFLRLKLNNLNKKLIDIEALMNNNLITAIEMSSLSEFHQSSFLLSASKKKRISKQCKLMRLPFARVPLTSNDDEDEDKEKMQCDNNIKSKTLPDIPSSGSTTQPLSTQDNSEVLFLKENNQNVYGLDDSEHISSIVDVPPRESHSHSDQSSKTSLMSEMRNAQSIGRRWEKPSPSNVTERKKRGSSWESNNLSADTPCATVLDKQHISSPELNCNNEINGHTNETNTEMQRNKQDLPGLSSESAREPNAECMNQIEDNDDFQLQKTVYDADMDLTASEVSKIVTVSTGIKKKSNKKTNEHGMKTFRKVKDSSSEKKRERSKRQFKNSSDVDIGEKIENRTERSDVLDGKRGAEDPGFIFNNEQLAQMNEQLAQVNELKKMTLQTGFEQGDRENVLCNKKEKRITNEQEETYSLSQSSGKFHQESKFDKGQNSLTCNKSKASRQTFVIHKLEKDNLLPNQKDKVTIYENLDVTNEFHTANLSTKDNGNLCDYGTHNILDLKKYVTDIQPSEQNESNINKLRKKVNRKTEIISGMNHMYEDNDKDVVHGLKKGNFFFKTQEDKEPISENIEVSKELQIPALSTRDNENQCDYRTQNVLGLQKQITNMYPVQQNESKVNKKLRQKVNRKTEIISEVNHLDNDKSIEYTVKSHSLFLTQKDKEIIPGNLEDPSEFETPALSTKDSGNLYDSEIQNVLGVKHGHDMQPACQNDSKIGKKPRLNVCQKSEIIPETNQIYENDNKGVHDLEKDNFFSLTPKDKETISENLQVTNEFQTVDLLIKDNGNLCDYDTQNILELKKYVTDRKSAEQNESKINKLRNKVNWKTEIISEMNQIYEDNDKDAHVQESYTKDLDFKVNKSKQKLECQDIINKHYMEVNSNEKESCDQILDSYKVVKKRKKESSCKAKNILTKAKNKLASQLTESSQTSISLESDLKHITSEADSDPGNPVELCKTQKQSTTTLNKKDLPFVEEIKEGECQVKKVNKMTSKSKKRKTSIDPSPESHEVMERILDSVQGKSTVSEQADKENNLENEKMVKNKPDFYTKAFRSLSEIHSPNIQDSSFDSVREGLVPLSVSSGKNVIIKENFALECSPAFQVSDDEHEKMNKMKFKVNRRTQKSGIGDRPLQDLSNTSFVSNNTAESENKSEDLSSERTSRRRRCTPFYFKEPSLRDKMRR

Variants of: B1
Details: with pp1a_human PPP1CA

effect of a mutation on the interaction | Variant
disrupting interaction | N58I

Variants of: B1
Details: with md2l1_human MAD2L1, Q13257
md2l1_human MAD2L1, Q13257, sequence (Q13257 whole entry): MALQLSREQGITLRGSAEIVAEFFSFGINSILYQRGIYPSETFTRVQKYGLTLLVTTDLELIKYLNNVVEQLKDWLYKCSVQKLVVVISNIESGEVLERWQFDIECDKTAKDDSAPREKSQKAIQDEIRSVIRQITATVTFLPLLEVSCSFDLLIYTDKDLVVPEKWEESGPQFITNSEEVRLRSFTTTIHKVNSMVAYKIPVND

effect of a mutation on the interaction | Variant
disrupting interaction | R153A
